Experimental data as given in paper PMC10579713, “Melatonin enhances KCl salinity tolerance by maintaining K+ homeostasis in Malus hupehensis”.

T1: MdWRKY53 (Malus hupehensis (CDS amplified from; …, UniProt A0A498JJJ9 1-351)
T1 sequence: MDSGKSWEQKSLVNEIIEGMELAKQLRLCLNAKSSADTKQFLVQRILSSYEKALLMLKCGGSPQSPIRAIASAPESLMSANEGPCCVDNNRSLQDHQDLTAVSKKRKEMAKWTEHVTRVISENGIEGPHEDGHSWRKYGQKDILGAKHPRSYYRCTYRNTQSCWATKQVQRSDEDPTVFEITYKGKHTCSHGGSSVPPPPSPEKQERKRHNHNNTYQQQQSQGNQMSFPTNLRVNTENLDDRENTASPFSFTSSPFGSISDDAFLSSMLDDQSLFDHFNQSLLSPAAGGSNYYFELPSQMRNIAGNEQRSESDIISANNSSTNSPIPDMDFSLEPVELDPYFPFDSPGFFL


Target: T1, MdWRKY53
Experiment: EMSA; unlabeled competitor reduced the binding; LightShift chemiluminescence EMSA kit (Thermo), manufacturer's instructions; buffer, salt, pH and temperature not stated
Details: protein: recombinant; tags: GST (N-terminal, pGEX6p-1); blunt

| Binder | binding result |
| --- | --- |
| MdGORK1 promoter W-box probe (dsDNA) DNA 1: TTATGTCACCTTATGTTTTTGACACAATTTTTATAACGTTGACACAG DNA 2: CTGTGTCAACGTTATAAAAATTGTGTCAAAAACATAAGGTGACATAA | binds |
| MdNHX2 promoter W-box probe (dsDNA) DNA 1: TGCACACGTCTTTCGAAGTTGACCAGATCAGTGTGCTTTGA DNA 2: TCAAAGCACACTGATCTGGTCAACTTCGAAAGACGTGTGCA | binds |
